According to patent US20200407424A1 (FRAUNHOFER GESELLSCHAFT ZUR F RDERUNG DER ANGEWANDTEN …, published 2020):
Square brackets hold non-standard residues; d marks the D form. Ends that are not written are not given here. Cit = NC(=O)NCCC[C@H](N)C(=O)O

B1: a-enolase peptide ref no 6 (peptide)
peptide: TSKGLFRAAVPSGAS
notes: also called corresponding non-citrinullated peptide of 291

Biological target: T1, recombinant MHC class II protein of the HLA DRB1 0101 genotype (human)
T1 construct: construct not described
Assay: in vitro binding assay

Binder | binding result
TSKGLF[Cit]AAVPSGAS [citrullinated a-enolase peptide ref no 291] | binds
KGVPLYRHIADLAGN [a-enolase peptide ref no 26] | binds
SERLAKYNQLLRIEE [a-enolase peptide ref no 81] | binds
ANFREAMRIGAEVYH [a-enolase peptide ref no 36] | binds
LLKVNQIGSVTESLQ [a-enolase peptide ref no 69] | no binding
GAPCRSERLAKYNQL [a-enolase peptide ref no 80] | binds
KTIAPALVSKKLNVT [a-enolase peptide ref no 15] | binds
VEHINKTIAPALVSK [a-enolase peptide ref no 14] | binds
KGVPLY[Cit]HIADLAGN [citrullinated a-enolase peptide ref no 299] | no binding
B1 | binds
AEVYHNLKNVIKEKY [a-enolase peptide ref no 38] | binds
KSFIKDYPVVSIEDP [a-enolase peptide ref no 57] | binds
KEGLELLKTAIGKAG [a-enolase peptide ref no 45] | binds

Biological target: T2, recombinant MHC class II protein of the HLA DRB1 0401 genotype (human)
T2 construct: construct not described; also called HLA-DR0401
Assay: in vitro binding assay

Binder | binding result
KGVPLYRHIADLAGN [a-enolase peptide ref no 26] | binds
SERLAKYNQLLRIEE [a-enolase peptide ref no 81] | no binding
ANFREAMRIGAEVYH [a-enolase peptide ref no 36] | no binding
LLKVNQIGSVTESLQ [a-enolase peptide ref no 69] | no binding
GAPCRSERLAKYNQL [a-enolase peptide ref no 80] | no binding
KTIAPALVSKKLNVT [a-enolase peptide ref no 15] | no binding
VEHINKTIAPALVSK [a-enolase peptide ref no 14] | no binding
KGVPLY[Cit]HIADLAGN [citrullinated a-enolase peptide ref no 299] | binds
B1 | no binding
AEVYHNLKNVIKEKY [a-enolase peptide ref no 38] | binds
KSFIKDYPVVSIEDP [a-enolase peptide ref no 57] | binds
KEGLELLKTAIGKAG [a-enolase peptide ref no 45] | binds

Biological target: T3, recombinant MHC class II protein of the HLA DRB1 0404 genotype (human)
T3 construct: construct not described
Assay: in vitro binding assay

Binder | binding result
KGVPLYRHIADLAGN [a-enolase peptide ref no 26] | binds
SERLAKYNQLLRIEE [a-enolase peptide ref no 81] | binds
ANFREAMRIGAEVYH [a-enolase peptide ref no 36] | no binding
LLKVNQIGSVTESLQ [a-enolase peptide ref no 69] | no binding
GAPCRSERLAKYNQL [a-enolase peptide ref no 80] | no binding
KTIAPALVSKKLNVT [a-enolase peptide ref no 15] | binds
VEHINKTIAPALVSK [a-enolase peptide ref no 14] | binds
KGVPLY[Cit]HIADLAGN [citrullinated a-enolase peptide ref no 299] | no binding
AEVYHNLKNVIKEKY [a-enolase peptide ref no 38] | no binding
KSFIKDYPVVSIEDP [a-enolase peptide ref no 57] | binds
KEGLELLKTAIGKAG [a-enolase peptide ref no 45] | binds

Biological target: T4, recombinant MHC class II protein of the HLA DRB1 0405 genotype (human)
T4 construct: construct not described
Assay: in vitro binding assay

Binder | binding result
TSKGLF[Cit]AAVPSGAS [citrullinated a-enolase peptide ref no 291] | binds
KGVPLYRHIADLAGN [a-enolase peptide ref no 26] | binds
SERLAKYNQLLRIEE [a-enolase peptide ref no 81] | no binding
ANFREAMRIGAEVYH [a-enolase peptide ref no 36] | binds
LLKVNQIGSVTESLQ [a-enolase peptide ref no 69] | binds
GAPCRSERLAKYNQL [a-enolase peptide ref no 80] | binds
KTIAPALVSKKLNVT [a-enolase peptide ref no 15] | no binding
VEHINKTIAPALVSK [a-enolase peptide ref no 14] | no binding
KGVPLY[Cit]HIADLAGN [citrullinated a-enolase peptide ref no 299] | binds
B1 | binds
AEVYHNLKNVIKEKY [a-enolase peptide ref no 38] | binds
KSFIKDYPVVSIEDP [a-enolase peptide ref no 57] | binds
KEGLELLKTAIGKAG [a-enolase peptide ref no 45] | binds

Biological target: T5, recombinant MHC class II protein of the HLA DRB1 0408 genotype (human)
T5 construct: construct not described
Assay: in vitro binding assay

Binder | binding result
TSKGLF[Cit]AAVPSGAS [citrullinated a-enolase peptide ref no 291] | no binding
KGVPLYRHIADLAGN [a-enolase peptide ref no 26] | binds
SERLAKYNQLLRIEE [a-enolase peptide ref no 81] | no binding
ANFREAMRIGAEVYH [a-enolase peptide ref no 36] | no binding
LLKVNQIGSVTESLQ [a-enolase peptide ref no 69] | no binding
GAPCRSERLAKYNQL [a-enolase peptide ref no 80] | binds
KTIAPALVSKKLNVT [a-enolase peptide ref no 15] | binds
VEHINKTIAPALVSK [a-enolase peptide ref no 14] | binds
KGVPLY[Cit]HIADLAGN [citrullinated a-enolase peptide ref no 299] | binds
B1 | no binding
AEVYHNLKNVIKEKY [a-enolase peptide ref no 38] | binds
KSFIKDYPVVSIEDP [a-enolase peptide ref no 57] | binds
KEGLELLKTAIGKAG [a-enolase peptide ref no 45] | binds

Biological target: T6, recombinant MHC class II protein of the HLA DRB1 1001 genotype (human)
T6 construct: construct not described
Assay: in vitro binding assay

Binder | binding result
TSKGLF[Cit]AAVPSGAS [citrullinated a-enolase peptide ref no 291] | binds
KGVPLYRHIADLAGN [a-enolase peptide ref no 26] | no binding
SERLAKYNQLLRIEE [a-enolase peptide ref no 81] | no binding
ANFREAMRIGAEVYH [a-enolase peptide ref no 36] | no binding
LLKVNQIGSVTESLQ [a-enolase peptide ref no 69] | no binding
GAPCRSERLAKYNQL [a-enolase peptide ref no 80] | no binding
KTIAPALVSKKLNVT [a-enolase peptide ref no 15] | no binding
VEHINKTIAPALVSK [a-enolase peptide ref no 14] | no binding
KGVPLY[Cit]HIADLAGN [citrullinated a-enolase peptide ref no 299] | no binding
B1 | no binding
AEVYHNLKNVIKEKY [a-enolase peptide ref no 38] | no binding
KSFIKDYPVVSIEDP [a-enolase peptide ref no 57] | binds
KEGLELLKTAIGKAG [a-enolase peptide ref no 45] | no binding

Biological target: T1, recombinant MHC class II protein of the …
Assay: in vitro binding assay
Remark: another data set of the same source

Binder | binding result
GEPGIAGFKGEQGPK [type II collagen peptide ref no 137] | binds
AGFKGEQGPKGEPGP [type II collagen peptide ref no 138] | binds

Biological target: T2, recombinant MHC class II protein of the …
Assay: in vitro binding assay
Remark: another data set of the same source

Binder | binding result
GEPGIAGFKGEQGPK [type II collagen peptide ref no 137] | binds
AGFKGEQGPKGEPGP [type II collagen peptide ref no 138] | binds
GIVGLPGQ[Cit]GE[Cit]GFP [citrullinated type II collagen peptide ref no 411] | binds
PGLQGMPGE[Cit]GAAGI [citrullinated type II collagen peptide ref no 386] | binds
LAGQRGIVGLPGQRG [type II collagen peptide ref no 241] | no binding
[Cit]GPPGPQGA[Cit]GFPGT [citrullinated type II collagen peptide ref no 332] | binds

Biological target: T3, recombinant MHC class II protein of the …
Assay: in vitro binding assay
Remark: another data set of the same source

Binder | binding result
GDRGETGAVGAPGAP [type II collagen peptide ref no 257] | binds
GEPGIAGFKGEQGPK [type II collagen peptide ref no 137] | binds
VMGFPGPKGANGEPG [type II collagen peptide ref no 166] | binds
PGLQGMPGERGAAGI [type II collagen peptide ref no 195] | binds
PQGARGFPGTPGLPG [type II collagen peptide ref no 100] | binds
GIVGLPGQ[Cit]GE[Cit]GFP [citrullinated type II collagen peptide ref no 411] | binds
GPPGATGFPGAAGRV [type II collagen peptide ref no 224] | binds
PGLQGMPGE[Cit]GAAGI [citrullinated type II collagen peptide ref no 386] | binds
LAGQRGIVGLPGQRG [type II collagen peptide ref no 241] | binds
[Cit]GPPGPQGA[Cit]GFPGT [citrullinated type II collagen peptide ref no 332] | binds

Biological target: T4, recombinant MHC class II protein of the …
Assay: in vitro binding assay
Remark: another data set of the same source

Binder | binding result
GIVGLPGQ[Cit]GE[Cit]GFP [citrullinated type II collagen peptide ref no 411] | binds
LAGQRGIVGLPGQRG [type II collagen peptide ref no 241] | binds
PSGFQGLPGPPGPPG [type II collagen peptide ref no 178] | binds
[Cit]GPPGPQGA[Cit]GFPGT [citrullinated type II collagen peptide ref no 332] | binds
GHRGFTGLQGLPGPP [type II collagen peptide ref no 272] | binds

Biological target: T6, recombinant MHC class II protein of the …
Assay: in vitro binding assay
Remark: another data set of the same source

Binder | binding result
GDRGEAGAQGPMGPS [type II collagen peptide ref no 263] | binds
PQGPRGDKGEAGEPG [type II collagen peptide ref no 268] | binds
APGN[Cit]GFPGQDGLAG [citrullinated type II collagen peptide ref no 357] | binds
PKGANGDPG[Cit]PGEPG [citrullinated type II collagen peptide ref no 362] | binds

Biological target: T2, recombinant MHC class II protein of the …
Assay: in vitro binding assay
Remark: another data set of the same source

Binder | binding result
TSKGLF[Cit]AAVPSGAS [citrullinated a-enolase peptide ref no 291] | binds
GIVGLPGQRGERGFP [corresponding non-citrullinated peptide of type II collagen peptide 411] | binds

Biological target: T3, recombinant MHC class II protein of the …
Assay: in vitro binding assay
Remark: another data set of the same source

Binder | binding result
TSKGLF[Cit]AAVPSGAS [citrullinated a-enolase peptide ref no 291] | binds
GIVGLPGQRGERGFP [corresponding non-citrullinated peptide of type II collagen peptide 411] | binds
PGLQGMPGERGAAGI [corresponding non-citrullinated peptide of type II collagen peptide 386] | binds
B1 | binds
